Target: T1, endothelial nitric oxide synthase (eNOS) (bovine (endogenous in BAEC), UniProt P29473 2-1205)
T1 sequence (looked up): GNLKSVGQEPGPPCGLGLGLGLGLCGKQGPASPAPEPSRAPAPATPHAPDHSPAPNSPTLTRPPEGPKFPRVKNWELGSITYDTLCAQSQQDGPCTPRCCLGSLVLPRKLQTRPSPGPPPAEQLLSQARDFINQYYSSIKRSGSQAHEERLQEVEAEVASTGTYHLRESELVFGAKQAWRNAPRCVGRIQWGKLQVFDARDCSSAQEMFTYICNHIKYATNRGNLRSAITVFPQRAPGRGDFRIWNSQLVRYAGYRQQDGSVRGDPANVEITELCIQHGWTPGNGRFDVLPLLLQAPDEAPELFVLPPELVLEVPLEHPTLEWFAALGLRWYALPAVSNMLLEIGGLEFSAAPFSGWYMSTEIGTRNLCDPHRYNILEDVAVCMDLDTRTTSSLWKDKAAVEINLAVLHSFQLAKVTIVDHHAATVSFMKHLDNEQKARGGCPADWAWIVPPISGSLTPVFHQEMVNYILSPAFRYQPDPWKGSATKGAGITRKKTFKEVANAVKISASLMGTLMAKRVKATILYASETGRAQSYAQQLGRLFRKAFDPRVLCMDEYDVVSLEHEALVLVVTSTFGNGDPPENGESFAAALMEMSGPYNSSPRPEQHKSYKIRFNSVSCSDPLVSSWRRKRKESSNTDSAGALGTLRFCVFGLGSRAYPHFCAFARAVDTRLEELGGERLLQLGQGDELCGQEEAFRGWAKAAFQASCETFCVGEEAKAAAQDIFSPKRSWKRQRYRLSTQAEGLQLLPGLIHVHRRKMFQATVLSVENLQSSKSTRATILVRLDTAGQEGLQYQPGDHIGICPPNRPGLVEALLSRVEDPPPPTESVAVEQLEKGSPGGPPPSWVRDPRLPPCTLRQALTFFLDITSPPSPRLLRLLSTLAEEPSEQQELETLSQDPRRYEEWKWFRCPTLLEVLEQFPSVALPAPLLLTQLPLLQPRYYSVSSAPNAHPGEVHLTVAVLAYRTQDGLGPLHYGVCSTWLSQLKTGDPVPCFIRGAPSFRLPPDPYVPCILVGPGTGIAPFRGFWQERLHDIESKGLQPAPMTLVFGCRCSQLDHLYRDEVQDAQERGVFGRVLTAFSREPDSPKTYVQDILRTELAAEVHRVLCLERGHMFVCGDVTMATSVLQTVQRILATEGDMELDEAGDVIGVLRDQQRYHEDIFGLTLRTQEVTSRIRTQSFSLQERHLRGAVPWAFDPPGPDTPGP
Experiment: cell-based or functional assay

RQIKIWFQNRRMKWKKDGIWKASFTTFTVTKYWFYR [AP-Cav]
EC50 of inhibition of VEGF-induced NO release in BAEC: 1.8 µM

RRPPRDGIWKASFTTFTVTKYWFYR [Endo5-Cav]
EC50 of inhibition of VEGF-induced NO release in BAEC: 7.5 µM
